Laboratory results: paper PMC2490753

Target: YacG (E. coli) (UniProt P0A8H8)
Assay: SPR

Chain of UniProt P0A8H8 (P0A8H8 whole entry): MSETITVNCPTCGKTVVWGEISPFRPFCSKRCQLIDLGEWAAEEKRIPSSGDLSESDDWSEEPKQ

response above nonspecific control at 1 uM GyrB: 92 RU
Substance: GyrB subunit of E. coli DNA gyrase (from UniProt P0AES6 1-804) (natural protein)
